Experimental data from PMC10723402.
Positions count from the first letter of the chain named. Where two headings read alike, the source gives them in different places.

Key:
Gsx2HD L216E [1] = target: T1, Gsx2HD L216E (Mus musculus, UniProt P31316 203-264, L216E); assay: EMSA
Gsx2HD L231E [2] = target: T2, Gsx2HD L231E (Mus musculus, UniProt P31316 203-264, L231E); assay: EMSA
Gsx2HD S212E [3] = target: T3, Gsx2HD S212E (Mus musculus, UniProt P31316 203-264, S212E); assay: EMSA
Gsx2 167-305 [4] = target: T4, Gsx2 167-305 (Mus musculus, UniProt P31316 167-305); assay: ITC
T4 sequence (P31316 167-305): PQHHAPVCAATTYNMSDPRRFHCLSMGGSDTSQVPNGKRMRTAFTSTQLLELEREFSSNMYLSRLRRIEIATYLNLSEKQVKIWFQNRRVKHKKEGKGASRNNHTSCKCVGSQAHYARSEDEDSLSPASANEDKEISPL

Gsx2HD = Gsx2HD (Mus musculus, UniProt P31316 203-264); assay: ITC
Sequence of Gsx2HD (P31316 203-264): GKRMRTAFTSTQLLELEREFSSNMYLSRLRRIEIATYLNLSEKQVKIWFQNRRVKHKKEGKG

Gsx2HD I234E = Gsx2HD I234E (Mus musculus, UniProt P31316 203-264, I234E); assay: ITC
Sequence of Gsx2HD I234E (P31316 203-264 I234E): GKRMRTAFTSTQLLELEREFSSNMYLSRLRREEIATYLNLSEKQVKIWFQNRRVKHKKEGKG

Gsx2HD L216E [5] = target: T1, Gsx2HD L216E; assay: EMSA; remark: listed apart in the source
Gsx2HD L231E [6] = target: T2, Gsx2HD L231E; assay: EMSA; remark: listed apart in the source
Gsx2HD S212E [7] = target: T3, Gsx2HD S212E; assay: EMSA; remark: listed apart in the source
Gsx2 167-305 [8] = target: T4, Gsx2 167-305; assay: EMSA
Gsx2 167-305 [9] = target: T4, Gsx2 167-305; assay: EMSA; remark: listed apart in the source

T2 sequence (P31316 203-264 L231E): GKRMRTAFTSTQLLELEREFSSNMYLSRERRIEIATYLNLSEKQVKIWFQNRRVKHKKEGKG
T3 sequence (P31316 203-264 S212E): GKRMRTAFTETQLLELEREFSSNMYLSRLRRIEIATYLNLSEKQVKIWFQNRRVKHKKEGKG
T1 sequence (P31316 203-264 L216E): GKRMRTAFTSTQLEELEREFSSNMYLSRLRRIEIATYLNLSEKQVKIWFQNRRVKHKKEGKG

B1: 8bpS dimer probe (dsDNA)
DNA 1: TCCAACTAATTAAAGATTTAATTCGTAGTGCGGGCGTGGCT
DNA 2: CGAATTAAATCTTTAATTAGTTGGA
DNA 3: AGCCACGCCCGCACTA
- binding result (Gsx2HD L216E [1]): binds
- binding result (Gsx2HD L231E [2]): binds
- binding result (Gsx2HD S212E [3]): binds

B2: TAATGG (common Q50) monomer site 15mer (dsDNA)
DNA 1: TGAGCTAATGGAAGC
DNA 2: AGCTTCCATTAGCTC
- Kd (Gsx2 167-305 [4]): 143 nM
- Kd (Gsx2HD): 36 nM

B3: TAATTA consensus monomer site 15mer (dsDNA)
DNA 1: TGAGCTAATTAAAGC
DNA 2: AGCTTTAATTAGCTC
- Kd (Gsx2HD I234E): 20 nM

B4: 7bpS dimer probe (= AAATT spacer probe) (dsDNA)
DNA 1: TCCAACTAATTAAAATTTAATTCGTAGTGCGGGCGTGGCT
DNA 2: CGAATTAAATTTTAATTAGTTGGA
DNA 3: AGCCACGCCCGCACTA
- binding result (Gsx2HD L216E [5]): binds
- binding result (Gsx2HD L231E [6]): binds
- binding result (Gsx2HD S212E [7]): binds

B5: ATATT spacer dimer probe (dsDNA)
DNA 1: B4 DNA 1 with A14T
DNA 2: CGAATTAAATATTAATTAGTTGGA
DNA 3: AGCCACGCCCGCACTA
- binding result (Gsx2 167-305 [8]): binds

B6: GCCGG spacer dimer probe (dsDNA)
DNA 1: B4 DNA 1 with A13G, A14C, A15C, T16G, T17G
DNA 2: CGAATTACCGGCTAATTAGTTGGA
DNA 3: AGCCACGCCCGCACTA
- binding result (Gsx2 167-305 [9]): binds

B7: GGGCC spacer dimer probe (dsDNA)
DNA 1: B4 DNA 1 with A13G, A14G, A15G, T16C, T17C
DNA 2: CGAATTAGGCCCTAATTAGTTGGA
DNA 3: AGCCACGCCCGCACTA
- binding result (Gsx2 167-305 [9]): binds

B8: GCGGG spacer dimer probe (dsDNA)
DNA 1: B4 DNA 1 with A13G, A14C, A15G, T16G, T17G
DNA 2: CGAATTACCCGCTAATTAGTTGGA
DNA 3: AGCCACGCCCGCACTA
- binding result (Gsx2 167-305 [9]): binds

B9: AATTT spacer dimer probe (dsDNA)
DNA 1: B4 DNA 1 with A15T
DNA 2: CGAATTAAAATTTAATTAGTTGGA
DNA 3: AGCCACGCCCGCACTA
- binding result (Gsx2 167-305 [8]): binds
